This note sets out measurements from paper PMC7060403 (Journal of molecular biology, 2019).

As a reminder, the Kd is the free concentration of one partner at which half of the binding sites on the other are occupied at equilibrium, for simple one-to-one binding. Higher therefore signals lower affinity. As usually defined, the stoichiometry N is a count of units in the complex or per binding partner.

T1: RavP-N (N-terminal region of the rabies virus phosphoprotein, residues 1-152) (rabies virus, UniProt P22363 1-152)
T1 sequence: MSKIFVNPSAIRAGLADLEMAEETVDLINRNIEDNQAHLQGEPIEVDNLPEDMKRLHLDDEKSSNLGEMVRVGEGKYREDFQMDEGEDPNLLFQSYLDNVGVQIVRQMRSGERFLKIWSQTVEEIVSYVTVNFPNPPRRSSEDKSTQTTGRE

B1: LC8 from Drosophila melanogaster (natural protein, UniProt Q24117 1-89, looked up)
chain: MSDRKAVIKNADMSEEMQQDAVDCATQALEKYNIEKDIAAYIKKEFDKKYNPTWHCIVGRNFGSYVTHETRHFIYFYLGQVAILLFKSG
B2: full-length rabies virus phosphoprotein (RavP-FL, residues 1-297) (natural protein)
chain: MSKIFVNPSAIRAGLADLEMAEETVDLINRNIEDNQAHLQGEPIEVDNLPEDMKRLHLDDEKSSNLGEMVRVGEGKYREDFQMDEGEDPNLLFQSYLDNVGVQIVRQMRSGERFLKIWSQTVEEIVSYVTVNFPNPPRRSSEDKSTQTTGRELKKETTSAFSQRESQPSKARMVAQVAPGPPALEWSATNEEDDLSVEAEIAHQIAESFSKKYKFPSRSSGIFLYNFEQLKMNLDDIVKEAKNVPGVTRLAHDGSKIPLRCVLGWVALANSKKFQLLVEADKLSKIMQDDLNRYTSC

The target in data set [1] is B2. Kind of data set: ITC. Background: In ITC the heat of successive injections is recorded.
Data set [2] has as its target T1, RavP-N (N-terminal region of the rabies …). Put plainly: ITC.
The data set “SEC-MALS” concerns the molecule itself. Put plainly: SEC-MALS. On the technique in general: SEC sorts molecules by how far they enter the pores of the column.

On to B1, for which, in data set [1], the affinity, expressed as Kd, was 82 nM and the “stoichiometry N” value stood at 1. Also, the affinity in data set [2], expressed as Kd, was 30 nM.

Take B2: the “stoichiometry N” value in the data set “SEC-MALS” turned out to be 2.
